Data from US20210403578A1 (published 2021).

T1: Fz8-CRD (UniProt Q9H461 32-151, fluorescence-conjugated)
T1 chain: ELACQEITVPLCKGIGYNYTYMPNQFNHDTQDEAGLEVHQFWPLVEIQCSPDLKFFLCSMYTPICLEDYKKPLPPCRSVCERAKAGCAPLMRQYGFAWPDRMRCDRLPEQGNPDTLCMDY


How the values were obtained:
Fz27C49 = experiment: yeast surface titration
Fz27C3 = experiment: yeast surface titration
Fzd1CRD = experiment: SPR
Fzd7CRD = experiment: SPR
Fzd5CRD = experiment: SPR
Fz8-CRD = biological target: T1, Fz8-CRD; experiment: SPR

Kd (Fz27C49) [nM]	Kd (Fz27C3) [nM]	Kd (Fzd1CRD) [nM]	Kd (Fzd7CRD) [nM]	Kd (Fzd5CRD) [nM]	Kd (Fz8-CRD) [nM]	Binder
~0.092	~0.122					Fzd8-CRD (receptor, fluorescence-conjugated) ELACQEITVPLCKGIGYNYTYMPNQFNHDTQDEAGLEVHQFWPLVEIQCSPDLKFFLCSMYTPICLEDYKKPLPPCRSVCERAKAGCAPLMRQYGFAWPDRMRCDRLPEQGNPDTLCMDY
		1.1	0.82	0.75	1.4	scFv(Onco)-DKK1c (other) MLLVNQSHQGFNKEHTSKMVSAIVLYVLLAAAAHSAFAADPIELTQPPSVSVAPGQTARISCSGDNIGSFYVHWYQQKPGQAPVLVIYDKSNRPSGIPERFSGSNSGNTATLTISGTQAEDEADYYCQSYANTLSLVFGGGTKLTVLGTTAASGSSGGSSSGAEVQLVESGGGLVQPGGSLRLSCAASGFTFSHYTLSWVRQAPGKGLEWVSVISGDGSYTYYADSVKGRFTISSDNSKNTLYLQMNSLRAEDTAVYYCARNFIKYVFANWGQGTLVTVSGSGSGKMYHTKGQEGSVCLRSSDCASGLCCARHFWSKICKPVLKEGQVCTKHRRKGSHGLEIFQRCYCGEGLSCRIQKDHHQASNSSRLHTCQRHHHHHHH
